Results reported in PMC5431157.

Columns and labels:
human thrombin (human) [1] = target: human thrombin (human) (UniProt P00734)
human thrombin (human) [2] = target: human thrombin (human) (UniProt P00734); remark: listed apart in the source
human thrombin (human) [3] = target: human thrombin (human) (UniProt P00734); assay: enzyme inhibition kinetics (chromogenic substrate S-2238); 0.1 nM thrombin, 15 µM S-2238, sculptin 0-500 pM; 50 mM phosphate, 150 mM NaCl, 0.1% PEG 6000, pH 7.4, 37 °C; fractional steady-state velocities fitted to Morrison's tight binding equation
human thrombin (human) [4] = target: human thrombin (human) (UniProt P00734); assay: enzyme inhibition kinetics (chromogenic substrate S-2238); 100 pM thrombin, 15 µM S-2238, sculptin 0-50 pM; 50 mM phosphate, 150 mM NaCl, 0.1% PEG 6000, pH 7.4, 37 °C; progress curves, kobs against sculptin concentration gives kon and koff; Ki = koff/kon
human thrombin (human) [5] = target: human thrombin (human) (UniProt P00734); assay: enzyme inhibition kinetics (chromogenic substrate S-2238); 0.1 nM thrombin added to sculptin (0-80 pM) and S-2238 at different concentrations; 50 mM phosphate, 150 mM NaCl, 0.1% PEG 6000, pH 7.4, 37 °C; Hanes-Woolf plot, intercepts against inhibitor concentration, confirmed by non-linear regression for competitive inhibition

Work on recombinant sculptin (natural protein) yielded a residual activity of thrombin (100 pM, chromogenic substrate) with 1 nM sculptin, 6 h at 37 °C (human thrombin (human) [1]) of 97%, an IC50 of inhibition of thrombin (0.1 nM) hydrolysis of 15 µM S-2238, dose-response fit (human thrombin (human) [2]) of 0.0866 nM and a Ki (human thrombin (human) [3]) of 0.0195 nM. For the same substance, the Ki (human thrombin (human) [4]) was 0.0161 nM, the koff (human thrombin (human) [4]) was 0.00065 s⁻¹ and the kon (human thrombin (human) [4]) was 4.04e+07 M⁻¹ s⁻¹. For the same substance, the Ki (human thrombin (human) [5]) was 0.0183 nM.
